Reference: patent US8097440B1, “Engineered microorganisms capable of producing target compounds under anaerobic conditions” (Gevo, Inc., priority 2008, dated 2012)

How the values were obtained:
[1] = tested on: CC(C)C=O; assay: cells, lysate or membranes; conditions: conversion to isobutanol
[2] = substrate: CC(C)C=O; assay: Alcohol dehydrogenase kinetic assay, Ec_FucO; type: biochemical, E. coli; conditions: conversion to isobutanol
Description: (§1) E. coli strain GEVO1745 was transformed by electroporation with one of plasmids pGV1705-A, pGV1748-A, pGV1749-A, or pGV1778-A. 50 mL of TB medium (23.1 g/L KH2PO4, 125.4 g/L K2HPO4, 12 g/L Bacto-tryptone, 24 g/L yeast extract, 4 ml/L glycerol) were inoculated to an initial OD600 of 0.2 using a 3 mL overnight LB culture of a single colony. The 50 mL culture was allowed to grow for 3-4 hrs at 250 rpm and 37° C. Protein expression was induced at an OD600 of 2-2.5 by the addition of IPTG to a final concentration of 1 mM. After the addition of IPTG, protein expression was allowed to continue for 20-24 hours at 225 rpm and 25° C.
(§2) Alcohol dehydrogenase (ADH) activity was assayed kinetically by monitoring the decrease in NAD(P)H concentration by measuring the absorbance at 340 nm. A reaction buffer was prepared containing 0.1 M potassium phosphate, 0.4 mM NAD(P)H, 10 mM isobutyraldehyde, 1 mM DTT, and 1 mM PMSF. Cell pellets were resuspended in 0.1 M potassium phosphate buffer containing 1 mM DTT and 1 mM PMSF at one fifth of the culture volume, i.e. 10 mL resuspension buffer for cell pellet from a 50 mL culture. The resuspended cells were lysed by sonication for 1 min with a 50% duty cycle. The reaction was initiated by the addition of 0.5 mL of the reaction buffer to 0.5 mL of clarified lysate in a cuvette. […]

[3] = substrate: CC(C)C=O; assay: Alcohol dehydrogenase kinetic assay, Dm_Adh; type: biochemical, Drosophila melanogaster; conditions: conversion to isobutanol
Description: as §1, §2

[4] = substrate: NC(=O)C1=CN([C@@H]2O[C@H](COP(=O)(O)OP(=O)(O)OC[C@H]3O[C@@H](n4cnc5c(N)ncnc54)[C@H](O)[C@@H]3O)[C@@H](O)[C@H]2O)C=CC1; assay: KARI cuvette assay, purified Ec_IlvC^B8A71S-his6; type: biochemical, E. coli
Description: (§3) KARI cuvette assay: KARI activity was assayed kinetically by monitoring the decrease in NAD(P)H concentration by measuring the absorbance at 340 nm. A reaction buffer was prepared containing 250 mM potassium phosphate pH 7, 1 mM DTT and 10 mM MgCl2. Cell pellets were resuspended (0.25 g wet weight/mL buffer) in 250 mM potassium phosphate (KPi) buffer containing 1 mM DTT and 10 mM MgCl2. The resuspended cells were lysed by sonication for 1 min with a 50% duty cycle and pelleted at 11000×g and 4° C. for 15 min. A reaction mixture consisting of 910 μl reaction buffer, 50 μl acetolactate, and 20 μl lysate was prepared in a cuvette. The reaction was initiated by addition of 20 μL of 10 mM NAD(P)H. A substrate free control was conducted using reaction buffer without the addition of acetolactate.
(§4) Purification of KARI: Cell pellets used for purification were resuspended in purification buffer A (20 mM Tris, 20 mM imidazol, 100 mM NaCl, 10 mM MgCl2, pH 7.4). KARI was purified by IMAC (Immobilized metal affinity chromatography) over a 1 ml Histrap High Performance (histrap HP) column pre-charged with Nickel (GE Healthcare) using an Akta FPLC system (GE Healthcare). The column was equilibrated with four column volumes (cv) of buffer A. After injecting the crude extract, the column was washed with buffer A for 2 cv, followed by a wash step with a mixture of 10% elution buffer B (20 mM Tris, 300 mM imidazol, 100 mM NaCl, 10 mM MgCl2, pH 7.4) for 5 cv. KARI variants were eluted at 40% buffer B and stored at 4° C.
(§5) As a next step, the gene encoding variant Ec_llvC^Q110V-his6 (SEQ ID NO: 23) was used as template to generate individual combinations of the mutation Q110V with other mutations: R68L, A71T, A71S, R76G, R76S, R76T, S78D, and R76D. After screening the variants as described above, the most promising ones were expressed, purified, and characterized. Table 29 lists the KM values in μM on NADPH and NADH for Ec_llvC^his6, Ec_llvC^Q110V-his6, and variants of Ec_llvC^Q110V-his6. […] The A71S mutation was introduced into Ec_llvC^B8-his6 resulting in a variant Ec_llvC^B8A71S-his6, which yielded 44% catalytic efficiency on NADH compared to the catalytic efficiency of wild-type KARI on NADPH (FIG. 19 and Table 30).

[5] = substrate: NC(=O)C1=CN([C@@H]2O[C@H](COP(=O)(O)OP(=O)(O)OC[C@H]3O[C@@H](n4cnc5c(N)ncnc54)[C@H](OP(=O)(O)O)[C@@H]3O)[C@@H](O)[C@H]2O)C=CC1; assay: KARI cuvette assay, purified Ec_IlvC^B8A71S-his6; type: biochemical, E. coli; conditions: other: purified; acetolactate as substrate
Description: as §3, §4, §5

[6] = substrate: NC(=O)C1=CN([C@@H]2O[C@H](COP(=O)(O)OP(=O)(O)OC[C@H]3O[C@@H](n4cnc5c(N)ncnc54)[C@H](O)[C@@H]3O)[C@@H](O)[C@H]2O)C=CC1; assay: KARI assay, purified Ec_IlvC^P2D1-A1-his6; type: biochemical, E. coli; conditions: other: expressed in yeast GEVO1186, purified; 30.0 °C
Description: as §3, §4
Improved variants were expressed and purified from GEVO1186. 20 mL SC-URA medium overnight cultures were grown at 30° C. and 250 rpm in 250 mL flasks and were then used to inoculate 96 well deep well plates on the next morning. 50 μL of the overnight cultures were transferred into 600 μL SC-URA medium per well. The plates were then grown at 30° C. and 250 rpm in a humidified plate shaker for 8 h. In order to the harvest, the cultures were transferred into 50 mL Falcon tubes and then spun down at 4° C. and 5,000 rpm for 10 min. […]

[7] = substrate: NC(=O)C1=CN([C@@H]2O[C@H](COP(=O)(O)OP(=O)(O)OC[C@H]3O[C@@H](n4cnc5c(N)ncnc54)[C@H](O)[C@@H]3O)[C@@H](O)[C@H]2O)C=CC1; assay: KARI assay, purified Ec_IlvC^P2D1-his6; type: biochemical, E. coli; conditions: other: expressed in yeast GEVO1186, purified; 30.0 °C
Description: as §3, §4
(§6) Improved variants were expressed and purified from GEVO1186. 20 mL SC-URA medium overnight cultures were grown at 30° C. and 250 rpm in 250 mL flasks and were then used to inoculate 96 well deep well plates on the next morning. 50 μL of the overnight cultures were transferred into 600 μL SC-URA medium per well. The plates were then grown at 30° C. and 250 rpm in a humidified plate shaker for 8 h. In order to the harvest, the cultures were transferred into 50 mL Falcon tubes and then spun down at 4° C. and 5,000 rpm for 10 min. The pellets were frozen until they were processed and purified as described in Example 14 above.
(§7) Results: Two rounds of error-prone PCR and screening were carried out. The libraries (˜2400 clones per library) were screened using the KARI high-throughput assay. […] In the first round variant Ec_llvC^P2D1-his6 (SEQ ID NO: 38), encoded by Ec_ilvC_coSc^P2D1-his6 (SEQ ID NO: 37) was identified carrying the following mutations: D146G and G185R. This variant served as parent for the second round of error-prone PCR and screening which yielded variant Ec_llvC^P2D1-A1-his6 (SEQ ID NO: 42), encoded by Ec_ilvC_coSc^P2D1-A1-his6 (SEQ ID NO: 41) with one additional mutation (K433E). A two-fold improvement of the specific activity in lysate and in the purified enzyme was observed after two rounds of error-prone PCR.

[8] = substrate: NC(=O)C1=CN([C@@H]2O[C@H](COP(=O)(O)OP(=O)(O)OC[C@H]3O[C@@H](n4cnc5c(N)ncnc54)[C@H](OP(=O)(O)O)[C@@H]3O)[C@@H](O)[C@H]2O)C=CC1; assay: KARI assay, purified Ec_IlvC^P2D1-his6; type: biochemical, E. coli; conditions: other: expressed in yeast GEVO1186, purified; 30.0 °C
Description: as §3, §4, §6, §7

[9] = other: purified, acetolactate as substrate

In the case of “Klebsiella pneumoniae propanediol dehydrogenase Kp_DhaT, SEQ ID NO: 63 (Klebsiella pneumoniae)”, the Km ([1]; other: NADH as cofactor) is reported as 1300 µM and the Km ([1]; other: NADPH as cofactor) is reported as 600 µM.

B1: Escherichia coli propanediol dehydrogenase Ec_FucO, SEQ ID NO: 65 (Escherichia coli K-12) (protein)
chain: MMANRMILNETAWFGRGAVGALTDEVKRRGYQKALIVTDKTLVQCGVVAKVTDKMDAAGLAWAIYDGVVPNPTITVVKEGLGVFQNSGADYLIAIGGGSPQDTCKAIGIISNNPEFADVRSLEGLSPTNKPSVPILAIPTTAGTAAEVTINYVITDEEKRRKFVCVDPHDIPQVAFIDADMMDGMPPALKAATGVDALTHAIEGYITRGAWALTDALHIKAIEIIAGALRGSVAGDKDAGEEMALGQYVAGMGFSNVGLGLVHGMAHPLGAFYNTPHGVANAILLPHVMRYNADFTGEKYRDIARVMGVKVEGMSLEEARNAAVEAVFALNRDVGIPPHLRDVGVRKEDIPALAQAALDDVCTGGNPREATLEDIVELYHTAW
notes: clarified crude lysate
B1 gave a Km ([2]; other: NADH as cofactor) of 800 µM and a Km ([2]; other: NADPH as cofactor) of 200 µM.

B2: Drosophila melanogaster alcohol dehydrogenase Dm_Adh, SEQ ID NO: 61 (Drosophila melanogaster) (protein)
chain: MSFTLTNKNVIFVAGLGGIGLDTSKELLKRDLKNLVILDRIENPAAIAELKAINPKVTVTFYPYDVTVPIAETTKLLKTIFAQLKTVDVLINGAGILDDHQIERTIAVNYTGLVNTTTAILDFWDKRKGGPGGIICNIGSVTGFNAIYQVPVYSGTKAAVVNFTSSLAKLAPITGVTAYTVNPGITRTTLVHTFNSWLDVEPQVAEKLLAHPTQPSLACAENFVKAIELNQNGAIWKLDLGTLEAIQWTKHWDSGI
notes: clarified crude lysate
B2 gave a Km ([3]; other: NADH as cofactor) of 900 µM and a Km ([3]; other: NADPH as cofactor) of 2700 µM.

B3: E. coli KARI Ec_IlvC variant Ec_IlvC^B8A71S-his6 (Q110V, S78D, A71S), SEQ ID NO: 29 (Escherichia coli K-12; A71S/Q110V/S78D) (protein)
chain: MANYFNTLNLRQQLAQLGKCRFMGRDEFADGASYLQGKKVVIVGCGAQGLNQGLNMRDSGLDISYALRKESIAEKRADWRKATENGFKVGTYEELIPQADLVINLTPDKVHSDVVRTVQPLMKDGAALGYSHGFNIVEVGEQIRKDITVVMVAPKCPGTEVREEYKRGFGVPTLIAVHPENDPKGEGMAIAKAWAAATGGHRAGVLESSFVAEVKSDLMGEQTILCGMLQAGSLLCFDKLVEEGTDPAYAEKLIQFGWETITEALKQGGITLMMDRLSNPAKLRAYALSEQLKEIMAPLFQKHMDDIISGEFSSGMMADWANDDKKLLTWREETGKTAFETAPQYEGKIGEQEYFDKGVLMIAMVKAGVELAFETMVDSGIIEESAYYESLHELPLIANTIARKRLYEMNVVISDTAEYGNYLFSYACVPLLKPFMAELQPGDLGKAIPEGAVDNGQLRDVNEAIRSHAIEQVGKKLRGYMTDMKRIAVAGLEHHHHHH
For B3, the Km [4, 9] was 53.5 µM, the kcat [4, 9] was 2.0 s⁻¹ and the kcat/Km [4, 9] was 38,330 M^−1 * s^−1. For the same molecule, the kcat/Km ([4]; with NADH) was 37500 M⁻¹ s⁻¹, the Km [5] was 63.4 µM and the kcat [5] was 2.4 s⁻¹. The kcat/Km [5] was 37,459 M^−1 * s^−1.

B4: E. coli KARI Ec_IlvC variant Ec_IlvC^P2D1-A1-his6 (Ec_IlvC^P2D1-his6 with K433E), SEQ ID NO: 42 (Escherichia coli K-12; A71S/D146G/G185R/K433E/Q110V/R76D/S78D) (protein)
chain: MANYFNTLNLRQQLAQLGKCRFMGRDEFADGASYLQGKKVVIVGCGAQGLNQGLNMRDSGLDISYALRKESIAEKDADWRKATENGFKVGTYEELIPQADLVINLTPDKVHSDVVRTVQPLMKDGAALGYSHGFNIVEVGEQIRKGITVVMVAPKCPGTEVREEYKRGFGVPTLIAVHPENDPKREGMAIAKAWAAATGGHRAGVLESSFVAEVKSDLMGEQTILCGMLQAGSLLCFDKLVEEGTDPAYAEKLIQFGWETITEALKQGGITLMMDRLSNPAKLRAYALSEQLKEIMAPLFQKHMDDIISGEFSSGMMADWANDDKKLLTWREETGKTAFETAPQYEGKIGEQEYFDKGVLMIAMVKAGVELAFETMVDSGIIEESAYYESLHELPLIANTIARKRLYEMNVVISDTAEYGNYLFSYACVPLLEPFMAELQPGDLGKAIPEGAVDNGQLRDVNEAIRSHAIEQVGKKLRGYMTDMKRIAVAGHHHHHH
In the case of B4, the Km [6] is reported as 26 µM, the kcat [6] is reported as 4.3 s⁻¹ and the kcat/Km [6] is reported as 167,687 M^−1 * S^−1.

B5: E. coli KARI Ec_IlvC variant Ec_IlvC^P2D1-his6 (Ec_IlvC^6E6-his6 with D146G and G185R), SEQ ID NO: 38 (Escherichia coli K-12; A71S/D146G/G185R/Q110V/R76D/S78D) (protein)
chain: MANYFNTLNLRQQLAQLGKCRFMGRDEFADGASYLQGKKVVIVGCGAQGLNQGLNMRDSGLDISYALRKESIAEKDADWRKATENGFKVGTYEELIPQADLVINLTPDKVHSDVVRTVQPLMKDGAALGYSHGFNIVEVGEQIRKGITVVMVAPKCPGTEVREEYKRGFGVPTLIAVHPENDPKREGMAIAKAWAAATGGHRAGVLESSFVAEVKSDLMGEQTILCGMLQAGSLLCFDKLVEEGTDPAYAEKLIQFGWETITEALKQGGITLMMDRLSNPAKLRAYALSEQLKEIMAPLFQKHMDDIISGEFSSGMMADWANDDKKLLTWREETGKTAFETAPQYEGKIGEQEYFDKGVLMIAMVKAGVELAFETMVDSGIIEESAYYESLHELPLIANTIARKRLYEMNVVISDTAEYGNYLFSYACVPLLKPFMAELQPGDLGKAIPEGAVDNGQLRDVNEAIRSHAIEQVGKKLRGYMTDMKRIAVAGHHHHHH
For B5, the Km [7] was 40 µM, the kcat [7] was 3.3 s⁻¹ and the kcat/Km [7] was 82,650 M^−1 * S^−1. The Km [8] was 1432 µM, the kcat [8] was 0.54 s⁻¹ and the kcat/Km [8] was 377 M^−1 * S^−1.
